Source: the supplement of paper PMC12042874
± gives the uncertainty stated by the source.

assay: amyloid nucleation score (Sup35N fusion, yeast selection) (log enrichment); library NNK2; higher = more nucleation; inactive = no reads after selection
In short: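 Nucleation score is defined as the DiMSum log enrichment of output over input reads, with centring on the mode score of non-aggregating sequences. A minimum of 100 input reads was required for each sequence. Reads came from Illumina sequencing of plasmid inserts from psi-negative yeast expressing Sup35N fused to peptides of 20 random codons, induced with 100 μM copper sulfate for 24 hours and grown 7 days at 30°C on medium lacking adenine and uracil.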

Substance	amyloid nucleation score
VTYEIVLWSWIKDVVHKLLR	-0.483 ± 0.48
VTYLGACVYRCCEMSLVFRF	-0.412 ± 0.63
VVANINEVLINPRCSAGFHD	0.683 ± 0.74
VVCYLRIYRRILYSGIKKWP	3.71 ± 0.073
VVDGLRATAH	0.366 ± 0.38
VVIAKDIMFSGSRINMVGSV	-1.23 ± 1.1
VVIHLLPSES	inactive
VVIILNDTNFLMINMVQRVM	4.327 ± 0.039
VVKLMAMFGRTNVLTLERHL	0.655 ± 0.31
VVLRELRIYIMNVWDPRGTL	-0.998 ± 0.62
VVMNFMTDVNSLVWPTS	inactive
VVNSQQFVGLCSRRSA	0.576 ± 0.42
VVRRYICRVLRMFWYWVVRE	-0.145 ± 0.76
VVRYRLCSWMDIMCNVAACQ	4.267 ± 0.042
VVTFTDYI	0.237 ± 1
VVTHYLQIYPRFSMHFFVSV	1.33 ± 0.22
VVTIIRSSVWVSTLCFGFFV	4.01 ± 0.068
VVTLRCSIVKEDTNGLLPGV	2.79 ± 0.09
VVVLFIEVLNCYLRGKVKCM	-0.802 ± 0.39
VVVNTYYSGIFMQVFLFL	6.76 ± 0.037
VVVNYVFPLSEFMLISDAKC	0.833 ± 0.8
VVWCGTYVYHDV	8.885 ± 0.075
VVWEYIRYRCCTYDAVYTRS	0.522 ± 0.74
VWDRITLFCSLLIRVHGLCT	0.269 ± 0.29

Substance	amyloid nucleation score
VWILSLAWLLPGYTCPFGPK	4.801 ± 0.042
VWKINISWRPSLSLLVIRLV	-0.594 ± 0.27
VWLFNLKGPLTRNLLHNLFA	-0.678 ± 0.63
VWNSIDTIYIYRHNYGFFYF	0.751 ± 0.36
VWPLNYYGWKTNMSSCFHST	-1.1 ± 1.1
VWQFRCGERMTKCLLWGDYG	0.072 ± 0.31
VWQVERVTIFLGFVKNLGLV	2.68 ± 0.084
VWRWSKRNATYIGAGIWSGR	1.42 ± 0.21
VWVSSIDMGLFVANLCETAS	-0.074 ± 1.1
VWYIALLQCQVRITYKGRVR	5.43 ± 0.073
VYCRNVELIGAYGIFAGSHI	-0.187 ± 0.79
VYEAWRTMQTGMYGVNRVWS	0.911 ± 0.15
VYHSGMTLFNFCCSMHLVEL	9.22 ± 0.041
VYKYI	-0.578 ± 1.1
VYNSFSAFFYG	7.051 ± 0.036
VYQMCFMAILVIRIVR	0.439 ± 0.25
VYRNVLSRMQSLCVF	inactive
VYTWNGRSWEYWTCPTLRNP	0.371 ± 0.8
VYVRFWESSSCYTRGRNGWN	3.08 ± 0.086
VYVWDELFVNKKANWTDL	1.29 ± 0.47
WARNEIYRRSTNKWPPMVRG	-0.014 ± 0.76
WAVELLLA	1.03 ± 0.53
WCCMGDMISVKSLVWEPCVT	3.17 ± 0.098
WCGARLKSDLCILK	-0.494 ± 0.31

Substance	amyloid nucleation score
WCHTGKRINFPFICFLWFWC	inactive
WCLFVLRRADTFRKGESVTC	1.79 ± 0.45
WCYELIYV	-0.573 ± 0.79
WDCGQTIYGFWDD	-0.58 ± 0.48
WDGLASLQVSCVAMLLVQSF	-0.546 ± 0.39
WDSQESITKS	-0.172 ± 0.54
WERDTFAVLLVRNFNR	0.187 ± 0.43
WESRLLEYLCTDVNTME	-0.553 ± 0.48
WFFRVLCLCRTLWNHYSFF	0.054 ± 0.79
WFGLDVNCLRSWFGLWKFVE	0.089 ± 0.56
WFLGMGKFHRRAWAARLFMV	2.45 ± 0.12
WFMVYYSLFTVNIGISRMDH	3.52 ± 0.16
WFNCEWEDEFIEGQRVVMTV	1.44 ± 0.47
WFPLGQHEKAEILSLMIVDR	-0.154 ± 0.49
WFSVVILLNSTMEYYQYLV	-0.128 ± 0.45
WFWNGLFNIRTVLDMHALCT	4.11 ± 0.088
WFYLCMFGAYLWRVRFDIRK	-0.428 ± 0.34
WGAVMACE	0.756 ± 0.49
WGFIVDFILSGRRPAGYQLL	0.309 ± 0.8
WGICSTEVSVIEWDWNGYQF	-1.14 ± 1.1
WGKLRGIPAYDYSLTGCLYV	0.647 ± 0.8
WGNILW	inactive
WGRWSHRWAFHYRACS	-0.879 ± 0.39
WGSEAHTDRVVQYWILALQR	1.19 ± 0.12

Substance	amyloid nucleation score
WHDNSSNGTGEGNFVRPVPV	1.13 ± 0.11
WHGQQDLDYYHFT	inactive
WHIFRNYAFIRVSM	0.036 ± 0.46
WIFFHGGRMRTCYRDAVGEV	-0.484 ± 0.36
WISNAWLYLWKHR	0.586 ± 0.81
WIWEKSHWSENISMVRCDVS	0.379 ± 0.55
WKVVSEIWIMGTSSTFVTDH	1.11 ± 0.12
WLAICVARWSETYCMFVWTT	-0.441 ± 1.1
WLCYRGEFRYFDPVGNDLRN	inactive
WLFIVFSTLS	-0.19 ± 1
WLHTTFSRSICSISIHRALE	-0.07 ± 0.48
WLLWS	0.472 ± 0.26
WLRLPICDLQLLNWADLRFV	0.236 ± 1.1
WLVFQFYVRGRREMVS	1.4 ± 0.2
WMSVG	-0.081 ± 1.1
WMTRIFTINVGNWWGFMHSR	3.02 ± 0.056
WNCLICRYVNVCKLLCFYY	6.505 ± 0.031
WNEIE	inactive
WNGYNGRDMCGKLCGVCTLG	0.219 ± 0.43
WNKYLCFKFRFYLPFVNYWL	inactive
WNLFMQYAFYRMDLASK	-0.689 ± 1.1
WPLRL	0.348 ± 0.31
WQENFSHCNLSMLCEVNLSK	-0.44 ± 0.49
WQHGVRSGQQECPRLEGNRV	0.379 ± 0.23

Substance	amyloid nucleation score
WRGFTECRVKLRYSGSGQFC	2.92 ± 0.058
WRQLRSPVYRPYCL	-0.124 ± 0.32
WRYIAVNFSNAFNDLVDSCA	0.117 ± 0.79
WSCYKNWG	-1.13 ± 0.5
WSEVGWFIYDKFREFVFSIK	inactive
WSGQPGFSTYGICLLSVRLK	-0.286 ± 0.65
WSITGG	0.477 ± 0.66
WSLLV	0.478 ± 0.8
WSLYHASERENIRPALTSIW	0.325 ± 0.21
WSLYLVVLAQ	0.294 ± 0.51
WSNSYHRLILWRQCIFGLLV	2.76 ± 0.081
WSRIGG	-0.498 ± 0.63
WSSTVKSVKSAGAP	0.475 ± 0.38
WSTFSTFTGYSA	-0.335 ± 0.5
WSVCKRLCNVEMLAENLAID	-0.67 ± 0.79
WSVVLWDVEGYWASASSQLW	0.907 ± 0.35
WSYCVNERSVIKQGLTCAYV	-0.28 ± 0.76
WTDTGMTYLFCNLFWLACGI	5.634 ± 0.03
WTHVHTRKDSLLSTGNCVPI	inactive
WTTYLGSFKWRNRVKWWPAP	1.88 ± 0.18
WTYACPKRHNVIVVC	3 ± 0.062
WTYDVQGREVCYVKPYLAMW	1.07 ± 0.32
WVLDVSFTVVFKMIHGVVSL	3.9 ± 0.14
WVLMYDICGS	inactive

Substance	amyloid nucleation score
WVLVYIICFTQDDS	-1.4 ± 1.1
WVSCVVCFWIDHESAALESV	8.784 ± 0.036
WVSSIGGDWGMIYSLLQLYW	0.205 ± 0.46
WVSSQAEWGVLCGICRSLES	inactive
WVVRGWLGV	0.23 ± 0.38
WWLYAL	3.74 ± 0.11
WWYGGLEMGFIICFRIPNVI	-0.606 ± 1.1
WYFIGKCRDGVSDGMRNNVR	0.148 ± 0.22
WYFPSVKIIENLW	6.035 ± 0.038
WYGFNNDTEWKNTKAFW	1.83 ± 0.084
WYNCSALWESLMFNGLQAVW	-0.268 ± 0.48
YAQWYDCTSSAEKRYKKVLS	-0.473 ± 0.31
YAWKNPYSCWICR	-0.174 ± 0.44
YCCCVSMFVRTLIARDYNLN	8.154 ± 0.078
YCCTDQGFSLGYRMLWCRDN	-1 ± 0.24
YCERAHALICSLRQVGWVPR	0.719 ± 0.25
YCGDLRCCKTHLSCRSCVSN	inactive
YCITEVRWAVA	5.61 ± 0.058
YCMFFCGCVTDPECNVPSDM	3.49 ± 0.1
YCMNLKDSTLLILKQPARST	7.045 ± 0.047
YCSYQVVRGRPSVAGRDNLQ	-0.424 ± 0.63
YCVRVMYNKLRLHMNIVVVC	0.705 ± 0.58
YDAMFS	1.09 ± 0.45
YDDKLHRPDDFGCRDHSPGM	0.495 ± 0.41

Substance	amyloid nucleation score
YDEYF	inactive
YDGAIDITTGLFLCFWVCTV	3.96 ± 0.047
YDLGLKFNSHLATWGGFYHW	-0.746 ± 0.76
YDNKASDVMVNYLRHICVYS	inactive
YDNTEASGLSWRTLLQGAVW	0.562 ± 0.45
YDVSYYCNCIAVLKSRLREL	5.203 ± 0.031
YEGNFAHCFSLGPDHVID	-0.202 ± 1.1
YEVREFSCHGINIKMEGIYC	1.48 ± 0.2
YEVSIIFCRLFSILIRPGTS	-1.1 ± 1.1
YFCCVSTIARSMFLSRGSGR	8.771 ± 0.058
YFCSLDSMPQSSVFDYLSAL	-0.43 ± 1.1
YFGTLSLLKHEVA	-0.289 ± 0.3
YFKCGGHAFCVSNYARLNDF	-0.573 ± 0.42
YFLGAFTYVFCACHSFCRYW	1.86 ± 0.15
YFLGMVPSFSLWYETSQSQC	-0.768 ± 0.42
YFLSSFVSNWWAQYVYW	inactive
YFMLPLYMMLLGYFYKTICS	6.933 ± 0.067
YFNIYAVEIVLGIRLFNNVD	1.99 ± 0.067
YFRISTWRFRTRHLGPCERG	5.708 ± 0.054
YFSCEFDTYHGEYCCMWQIM	0.069 ± 0.8
YFVCVASDGNMGIRYATR	inactive
YFVRFEDIGWTVSVHTGDSG	-0.063 ± 0.45
YFYNGSRA	-1.61 ± 1.1
YGCCGKDFCVGPRGVCAV	1.05 ± 0.24
